From PMC7246340, “A Novel Anti-Kv10.1 Nanobody Fused to Single-Chain TRAIL Enhances Apoptosis Induction in Cancer Cells” (Frontiers in Pharmacology, 2020) come the findings set out here.

Where a chain is given by its changes, count along the chain named.

B1: anti-Kv10.1 nanobody VHH-C4 (VHH)
VHH: RLLLVQSGGGLVQAGGSLRLSCAASGRTFSNYAMYWFRQTPGKDREFVASISYSGTFTDYAGSVKGRFTISRDNAKNTLYLQMNSLRPEDTAVYYCSLDRHYWGPGTQVTVSS
notes: Short CDR3 (six residues); His tag comes from the phage display vector; The preparation used for SPR is not described; source: E. coli TG1TR, culture supernatants (ELISA)
B2: anti-Kv10.1 nanobody VHH-D9 (VHH)
VHH: B1 VHH with R1Q, L2V, L3Q, T78R, R87K, H101L, P105Q
notes: a model in PDB format is also in the Supplementary Information; Short CDR3 (six residues); His tag comes from the phage display vector; The preparation used for SPR is not described; source: E. coli TG1TR, culture supernatants (ELISA)
B3: E12 (VHH)
VHH: EVQLVESGGGLVQAGGSLRLSCTASGRTFSSYIFAWFRQAPGEERKFVAGITGNGGTGYSNSVKGRFTISRDNAKNTVLLQMNNLKPDDTAVYYCAAHSRSSYYYRGPDLYDYWGQGTQVTVSS
B4: anti-Kv10.1 nanobody F6 (VHH)
VHH: B3 VHH with E1Q, E6Q, S30G, F34L, A40T, N61D, D88E, R106K
notes: From a phage display library of a llama immunised with h1x; His tag comes from the phage display vector; source: E. coli TG1TR, culture supernatants (ELISA)
B5: anti-Kv10.1 nanobody A12 (VHH)
VHH: B3 VHH with E1R, V2C, Q3K, V5Q, S25A, F34L, G56E, D88E, S102T
notes: as for B4
B6: anti-Kv10.1 nanobody G4 (VHH)
VHH: B3 VHH with E1Q, E6Q, L18R, F34L, A35G, G50A, S60A, N61D, N84S, D88E
notes: as for B4
B7: G10 (VHH)
VHH: EVQLVESGGGLVQPGGSLRLSCTAAGRTFSTYILAWFRQAPGEERKFVAGITGNGETGYSNSVKGRFTIARDNAKNTVFLQMNNLKPEDTAVYYCAAHSRSTYYYKGPDLYDYGQGTQVTVSS
B8: anti-Kv10.1 nanobody G1 (VHH)
VHH: VQLVEVWGRIGAKRGGSLRLSCTAAGRTFSSYILAWFRQAPGEERKFVAGITGNGETGYSNSVKGRFTISRDNAKNTVLLQMNNLKPEDTAVYYCAAHSRSIYYYRGPDLYDYWGQGTQVTVSS
notes: as for B4
B9: anti-Kv10.1 nanobody F5 (VHH)
VHH: QVQLVQSGGGLVQAGGSLRLSCAASGRTFENYIMAWFRQAPGEERKFVAAITGNGGTGYADSVKGRFTISRDNAKNTVLLQMNSLKPEDTAVYYCAAHSRSSYYYKGPDLYDYWGQGTQVTVSS
notes: as for B4
B10: h1x antigen (E3-S5-pore segment fused to the C-terminal coiled coil domain of Kv10.1 and to thioredoxin) (domain or fragment, human)
chain: IGDYEIFDEDTKTIRNNSWLYQLAMDIGTPYQFNGSGSGKWEGGPSKNSVYISSLYFTMTSLTSVGFGNIAPSTDIEK
notes: Kv10.1 voltage-gated potassium channel, E3 segment (extracellular linker between S5 and S6 transmembrane segments, extending to the pore loop); numbers count on: Homo sapiens Kv10.1, isoform 1 (UniProt O95259-2); Kv10.1 voltage-gated potassium channel, C-terminal tetramerizing coiled-coil (C-terminal assembly domain); The coiled coil was added with the aim to induce tetramerization; the …

The target in test [1] is B10. Nature of the test: ELISA; plates coated overnight with 500 ng h1x in TBS, blocked with 2% BSA; VHHs (E. coli culture supernatants) incubated 2 h at different concentrations; detected by mouse anti-His antibody and peroxidase-conjugated anti-mouse; apparent affinities. The note with it: one partner purified. For orientation: In an ELISA, binding on a coated surface is turned into a signal by an enzyme label.

Test [2] deals with B10. The test is described as above. As to conditions: one partner purified. The source holds these as a separate data set.
Test [3] deals with B10. Nature of the test: SPR; recombinant antigen h1x immobilised on the chip; serial dilution of nanobody as analyte (D9 3.12 nM to 200 nM, C4 25 nM to 400 nM); 1:1 Langmuir model. As to conditions: both partners purified.
Test [4] addresses B10.
In test [5] the target is T1, VHH-D9-scTRAIL (llama (Lama glama) | ).
T1 construct: nanobody D9, as the VHH of m4 without its His tag; TRAIL (Tumor Necrosis Factor-Related Apoptosis-Inducing Ligand) fragment, first of three in single-chain TRAIL; short peptide linker between TRAIL fragments; TRAIL fragment, second of three in single-chain TRAIL; TRAIL fragment, third of three in single-chain TRAIL; a linker between VHH and scTRAIL is not described; Vector tags were eliminated by …
Nature of the test: ELISA; plates coated with 500 ng h1x or h2x, blocked with 3% BSA; Ab-scTRAIL constructs (CHO-K1 supernatants, not further purified) incubated 2 h at different concentrations; detected with the anti-TRAIL conjugate of the Quantikine TRAIL ELISA kit; apparent affinities. The note with it: one partner purified.

In the case of B1, the Kd in test [1] was found to be 87 nM; in test [2] it was 81 nM; in test [3], 1800 nM.
Consider B2, for which the Kd in test [1] was determined as 11 nM; in test [3], 78 nM.
Regarding B3, in test [4], the binding result was “binds”.
Turning to B4, in test [1], the Kd came to 177 nM.
The same measure, in the same setting: the figure for B5 is 343 nM; for B6 it is 943 nM.
For the molecule B7, in test [4], the binding result was “binds”.
As to B8, the Kd in test [1] was found to be 431 nM.
For B9, the Kd in test [1] stood at 470 nM.
For the molecule B10, the Kd in test [5] is 0.029 nM.
